In patent publication US20110118131A1 (published 2011):
Residue numbers refer to the chain shown, from its start. Numbers in names are those of the source.

B1: XPA23 Fab, heavy chain R59N (Fab, V domains shown)
VH: EVQLLESGGGLVQPGGSLRLSCAASGFTFSKYFMFWVRQAPGKGLEWVSVISPSGGMTNYADSVKGRFTISRDNSKNTLYLQMNSLRAEDTAVYYCARVGYGGNSDYWGQGTLVTVSS
VL: DIQMTQSPSSVSASVGDRLTIICRASQDINRWLAWYQQTPGNAPKLLIHSATSLQSGVPSRFSGSGSGTDFTLTINSLQPEDFATYYCQQADSFPLTFGGGTKVEIK
B2: XPA23 Fab, heavy chain S30E (Fab, V domains shown)
VH: B1 VH with S30E, N59R
VL: B1 VL
B3: XPA23 Fab, heavy chain S52D (Fab, V domains shown)
VH: B1 VH with S52D, N59R
VL: B1 VL
B4: XPA23 Fab, heavy chain S52E (Fab, V domains shown)
VH: B1 VH with S52E, N59R
VL: B1 VL
B5: XPA23 Fab, heavy chain S30R (Fab, V domains shown)
VH: B1 VH with S30R, N59R
VL: B1 VL
B6: XPA23 Fab, heavy chain R59Q (Fab, V domains shown)
VH: B1 VH with N59Q
VL: B1 VL
B7: XPA23 Fab, heavy chain S30W (Fab, V domains shown)
VH: B1 VH with S30W, N59R
VL: B1 VL
B8: XPA23 Fab, heavy chain R59Y (Fab, V domains shown)
VH: B1 VH with N59Y
VL: B1 VL
B9: XPA23 Fab, heavy chain S30D (Fab, V domains shown)
VH: B1 VH with S30D, N59R
VL: B1 VL
B10: XPA23 Fab, heavy chain R59S (Fab, V domains shown)
VH: B1 VH with N59S
VL: B1 VL
B11: XPA23 Fab, heavy chain S30Q (Fab, V domains shown)
VH: B1 VH with S30Q, N59R
VL: B1 VL
B12: XPA23 Fab, heavy chain S30N (Fab, V domains shown)
VH: B1 VH with S30N, N59R
VL: B1 VL
B13: XPA23 Fab, heavy chain S30Y (Fab, V domains shown)
VH: B1 VH with S30Y, N59R
VL: B1 VL
B14: XPA23 Fab, heavy chain S30F (Fab, V domains shown)
VH: B1 VH with S30F, N59R
VL: B1 VL
B15: XPA23 Fab, heavy chain S30H (Fab, V domains shown)
VH: B1 VH with S30H, N59R
VL: B1 VL
B16: XPA23 Fab, heavy chain R59W (Fab, V domains shown)
VH: B1 VH with N59W
VL: B1 VL
B17: XPA23 Fab, heavy chain S30K (Fab, V domains shown)
VH: B1 VH with S30K, N59R
VL: B1 VL

Target: T1, IL-1beta (UniProt P01584 117-269)
T1 construct: also called IL-1β
Test: Biacore

| Binder | fold difference in affinity vs parental [fold] | binding result |
| --- | --- | --- |
| B1 | 0.86 | – |
| B2 | – | no binding |
| B3 | – | no binding |
| B4 | – | no binding |
| B5 | 0.1 | – |
| B6 | 0.86 | – |
| B7 | 0.77 | – |
| B8 | – | no binding |
| B9 | – | no binding |
| B10 | 0.13 | – |
| B11 | – | no binding |
| B12 | 0.15 | – |
| B13 | – | no binding |
| B14 | – | no binding |
| B15 | – | no binding |
| B16 | 0.09 | – |
| B17 | – | no binding |
